This is an account of results in publication PMC9652331, “Cryo-EM structures of human m^6A writer complexes” (Cell Research, 2022).

This series deals with the molecule itself. The experiment in a line: cross-linking; BS3 XL-MS of purified MACOM (Fig. S4a, b): 0.5 mM BS3, 50 mM HEPES pH 7.5, 100 mM KCl, 5% glycerol, 25 °C, 2 h; pLink2.

B1: Wilms' tumor 1-associated protein (WTAP), full length, N-6× His-WTAP (natural protein, human, UniProt Q15007 1-396, looked up)
chain: MTNEEPLPKKVRLSETDFKVMARDELILRWKQYEAYVQALEGKYTDLNSNDVTGLRESEEKLKQQQQESARRENILVMRLATKEQEMQECTTQIQYLKQVQQPSVAQLRSTMVDPAINLFFLKMKGELEQTKDKLEQAQNELSAWKFTPDSQTGKKLMAKCRMLIQENQELGRQLSQGRIAQLEAELALQKKYSEELKSSQDELNDFIIQLDEEVEGMQSTILVLQQQLKETRQQLAQYQQQQSQASAPSTSRTTASEPVEQSEATSKDCSRLTNGPSNGSSSRQRTSGSGFHREGNTTEDDFPSSPGNGNKSSNSSEERTGRGGSGYVNQLSAGYESVDSPTGSENSLTHQSNDTDSSHDPQEEKAVSGKGNRTVGSRHVQNGLDSSVNVQGSVL
notes: Wilms' tumor 1-associated protein (WTAP), human, full length; Stands as a homodimer in the MACOM complexes (two copies, WTAP-a and WTAP-b); No removal of the His tag is described; also called WTAP-a; WTAP-b; source: High Five insect cells, co-expressed with the other MACOM components, purified as a complex (Ni-NTA, STREP beads, SEC); not shown: 6× His, N-terminal, kept
In the case of B1, the binding result is listed as “binds”.
